Experimental data published in the Immune Epitope Database (IEDB).

What was measured:
[1] = biological target: HLA-A*23:01; assay: IEDB peptide-MHC binding, purified MHC/competitive/radioactivity; filed as Kd, often an IC50 or EC50 that approximates it; ≥ and ≤ were set here for values at or beyond the usual limits of such assays
[2] = biological target: HLA-A*29:02; assay: as above
[3] = biological target: HLA-A*24:02; assay: as above
[4] = biological target: HLA-A*30:02; assay: as above
[5] = biological target: HLA-A*01:01; assay: as above
[6] = biological target: HLA-A*26:01; assay: as above
[7] = biological target: HLA-A*02:01; assay: IEDB peptide-MHC binding, purified MHC/competitive/fluorescence; ≥ and ≤ were set here for values at or beyond the usual limits of such assays
[8] = biological target: HLA-B*08:01; assay: IEDB peptide-MHC binding, purified MHC/competitive/radioactivity; filed as Kd, often an IC50 or EC50 that approximates it; ≥ and ≤ were set here for values at or beyond the usual limits of such assays
[9] = biological target: HLA-A*32:01; assay: as above
[10] = biological target: HLA-A*69:01; assay: IEDB peptide-MHC binding, purified MHC/direct/fluorescence; filed as Kd, often an IC50 or EC50 that approximates it; ≥ and ≤ were set here for values at or beyond the usual limits of such assays
[11] = biological target: HLA-A*02:01; assay: as above
[12] = biological target: HLA-A*33:01; assay: IEDB peptide-MHC binding, purified MHC/competitive/radioactivity; filed as Kd, often an IC50 or EC50 that approximates it; ≥ and ≤ were set here for values at or beyond the usual limits of such assays; settings: source organism: Dengue virus 4 Philippines/H241/1956
[13] = biological target: HLA-A*31:01; assay: as above; settings: source organism: Dengue virus 4 Philippines/H241/1956
[14] = source organism: SARS coronavirus Tor2
[15] = source organism: Mammarenavirus machupoense
[16] = source organism: Dengue virus 3 Martinique/1243/1999
[17] = source organism: Vaccinia virus WR
[18] = source organism: Dengue virus 2 Jamaica/1409/1983
[19] = source organism: Zaire ebolavirus
[20] = source organism: Lassa virus Josiah
[21] = source organism: Sudan ebolavirus
[22] = source organism: Dengue virus 1 Singapore/S275/1990
[23] = source organism: Camelpox virus M-96
[24] = source organism: Mammarenavirus brazilense
[25] = source organism: Vibrio vulnificus YJ016
[26] = source organism: Dengue virus 1 Brazil/97-11/1997

EYPIIGDEL
Kd [1, 14]: 16.2 µM
Kd [2, 14]: 0.176 µM
Kd [3, 14]: 14.1 µM
Kd [4, 14]: 1.33 µM
Kd [5, 14]: ≥ 78.1 µM
Kd [6, 14]: ≥ 77.9 µM

SNAKCIEYV
IC50 ([7]; source organism: Vaccinia virus Copenhagen): 53.6 µM

LCEEGKVCY
Kd [1, 15]: ≥ 31.6 µM
Kd [2, 15]: ≥ 45.4 µM
Kd [3, 15]: ≥ 77.5 µM
Kd [4, 15]: 14.2 µM
Kd [5, 15]: 7.83 µM
Kd [6, 15]: ≥ 77.9 µM

HTLSIHDGY
Kd [1, 14]: ≥ 77.8 µM
Kd [2, 14]: 0.00179 µM
Kd [3, 14]: ≥ 77.6 µM
Kd [4, 14]: 0.000411 µM
Kd [5, 14]: 1.5 µM
Kd [6, 14]: 0.016 µM

EFSSNVANY
Kd [1, 14]: ≥ 77.8 µM
Kd [2, 14]: 0.703 µM
Kd [3, 14]: ≥ 32.2 µM
Kd [4, 14]: 0.828 µM
Kd [5, 14]: 11.2 µM
Kd [6, 14]: 2.9 µM

RPTIEKDVDL
Kd [8, 16]: 0.846 µM

MLNYVDYNI
Kd [9, 17]: 0.00159 µM

RILFRKPSL
Kd [8, 17]: 0.0322 µM

SNKRHRPIG
Kd [8, 17]: 0.0335 µM

ETRTETWMSS
Kd [9, 18]: 12.8 µM
Kd [6, 18]: 0.693 µM

QLLLMRTSW
Kd [9, 16]: 0.0104 µM

TTTIKPVSY
Kd [1, 14]: ≥ 77.8 µM
Kd [2, 14]: 0.0473 µM
Kd [3, 14]: ≥ 77.6 µM
Kd [4, 14]: 0.142 µM
Kd [5, 14]: 0.286 µM
Kd [6, 14]: 0.36 µM

SVYKHRLIV
Kd [8, 17]: 0.108 µM

TGPCAGDFA
IC50 [7, 19]: ≥ 112 µM

HTILYNNTI
Kd [9, 17]: 0.00188 µM

TVATSRTLSY
Kd [1, 14]: ≥ 70 µM
Kd [2, 14]: 0.1 µM
Kd [3, 14]: ≥ 70.3 µM
Kd [4, 14]: 0.822 µM
Kd [5, 14]: 0.341 µM
Kd [6, 14]: 0.0779 µM

KCWLVSNGSY
Kd [1, 20]: ≥ 70 µM
Kd [2, 20]: 1.53 µM
Kd [3, 20]: ≥ 70.3 µM
Kd [4, 20]: 0.0114 µM
Kd [5, 20]: 11.5 µM
Kd [6, 20]: ≥ 69.7 µM

QFLLQLNET
IC50 [7, 19]: 16.1 µM

RGVNFAEGV
IC50 [7, 21]: 32.9 µM

ATIQRFSSL
Kd [8, 17]: 0.00334 µM

KGEDGCWYGM
Kd [9, 22]: 1.88 µM

NIMPLFPTF
Kd [8, 17]: 0.0481 µM

CTFLLNKEMY
Kd [1, 14]: ≥ 70 µM
Kd [2, 14]: 0.789 µM
Kd [3, 14]: ≥ 70.3 µM
Kd [4, 14]: 0.412 µM
Kd [5, 14]: 0.793 µM
Kd [6, 14]: 9.38 µM

TMFKIVYSL
Kd [9, 17]: 0.000915 µM

DLYDYITRI
Kd [10, 23]: 0.0353 µM
Kd [11, 23]: 0.101 µM

SNSNRLMSI
Kd [8, 17]: 0.0101 µM

TERSASGGVY
Kd [1, 24]: ≥ 44.9 µM
Kd [2, 24]: ≥ 55.5 µM
Kd [3, 24]: ≥ 70.3 µM
Kd [4, 24]: 1.01 µM
Kd [5, 24]: 1.71 µM
Kd [6, 24]: ≥ 54.6 µM

SLGGHTVWQ
Kd [10, 25]: ≥ 20 µM
Kd [11, 25]: 8 µM

FLLRRWGGT
IC50 [7, 21]: 2.02 µM

MEVTARWLWG
Kd [9, 22]: 3.72 µM

VYSDVETPHL
Kd [1, 14]: 0.163 µM
Kd [2, 14]: 0.589 µM
Kd [3, 14]: 0.245 µM
Kd [4, 14]: 16.1 µM
Kd [5, 14]: 0.303 µM
Kd [6, 14]: ≥ 69.7 µM

VAEMDGIQY
Kd [1, 14]: ≥ 77.8 µM
Kd [2, 14]: 0.0583 µM
Kd [3, 14]: ≥ 77.6 µM
Kd [4, 14]: 0.0195 µM
Kd [5, 14]: 0.0308 µM
Kd [6, 14]: 1.27 µM

STFNRFTIV
Kd [8, 17]: 1.73 µM

MFGGVSWMVR
Kd [12]: 0.00459 µM
Kd [13]: 0.0172 µM
Kd ([9]; source organism: Dengue virus 4 Philippines/H241/1956): 0.952 µM

MGLDKGWPIS
Kd [9, 26]: 10.1 µM

LMINNMHSI
Kd [9, 17]: 13.8 µM

KLDISEATQ
IC50 [7, 19]: ≥ 96.7 µM

HKQWFLDLPL
Kd [8, 26]: 0.057 µM

VYMPASWVM
Kd [1, 14]: 5.42 µM
Kd [2, 14]: 14.7 µM
Kd [3, 14]: 12.6 µM
Kd [4, 14]: ≥ 20.9 µM
Kd [5, 14]: ≥ 78.1 µM
Kd [6, 14]: ≥ 77.9 µM
